In article PMC6141617 (Nature Communications, 2018):

T1: 14-3-3β (purified alone) (human, UniProt P31946 1-239)
T1 construct: also called YWHAB (pTvHR21-SGC)
T1 sequence: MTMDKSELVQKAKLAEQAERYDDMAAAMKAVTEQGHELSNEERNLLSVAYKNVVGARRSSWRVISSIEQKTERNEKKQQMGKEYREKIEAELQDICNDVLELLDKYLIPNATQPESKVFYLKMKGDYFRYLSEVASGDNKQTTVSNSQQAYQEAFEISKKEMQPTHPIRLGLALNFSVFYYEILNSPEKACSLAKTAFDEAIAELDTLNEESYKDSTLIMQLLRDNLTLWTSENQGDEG

B1: 14-3-3β^1–239 (untagged, first co-expression construct) (natural protein)
chain: MTMDKSELVQKAKLAEQAERYDDMAAAMKAVTEQGHELSNEERNLLSVAYKNVVGARRSSWRVISSIEQKTERNEKKQQMGKEYREKIEAELQDICNDVLELLDKYLIPNATQPESKVFYLKMKGDYFRYLSEVASGDNKQTTVSNSQQAYQEAFEISKKEMQPTHPIRLGLALNFSVFYYEILNSPEKACSLAKTAFDEAIAELDTLNEESYKDSTLIMQLLRDNLTLWTSENQGDEG
B2: 14-3-3β truncated after N234 (untagged, re-designed co-expression construct) (domain or fragment, human, UniProt P31946 1-234, looked up)
chain: MTMDKSELVQKAKLAEQAERYDDMAAAMKAVTEQGHELSNEERNLLSVAYKNVVGARRSSWRVISSIEQKTERNEKKQQMGKEYREKIEAELQDICNDVLELLDKYLIPNATQPESKVFYLKMKGDYFRYLSEVASGDNKQTTVSNSQQAYQEAFEISKKEMQPTHPIRLGLALNFSVFYYEILNSPEKACSLAKTAFDEAIAELDTLNEESYKDSTLIMQLLRDNLTLWTSEN
B3: GFP-ExoS^233-435 (domain or fragment)
chain: ADKALADGLVKRFGADAEKYLGRQPGGIHSDAEVMALGLYTGIHYADLNRALRQGQELDAGQKLIDQGMSAAFEKSGQAEQVVKTFRGTRGGDAFNAVEEGKVGHDDGYLSTSLNPGVARSFGQGTISTVFGRSGIDVSGISNYKNEKEILYNKETDMRVLLSASDEQGVTRRVLEEAALGEQSGHSQGLLDALDLASKPERS
B4: GFP-ExoS^233-453 (domain or fragment)
chain: ADKALADGLVKRFGADAEKYLGRQPGGIHSDAEVMALGLYTGIHYADLNRALRQGQELDAGQKLIDQGMSAAFEKSGQAEQVVKTFRGTRGGDAFNAVEEGKVGHDDGYLSTSLNPGVARSFGQGTISTVFGRSGIDVSGISNYKNEKEILYNKETDMRVLLSASDEQGVTRRVLEEAALGEQSGHSQGLLDALDLASKPERSGEVQEQDVRLRMRGLDLA

Tests used:
crystal structure = target: the molecule itself; experiment: crystal structure
14-3-3β (purified alone) = target: T1, 14-3-3β (purified alone); experiment: fluorescence polarisation; conditions: both partners purified

| Binder | stoichiometry N (crystal structure) | Kd (14-3-3β (purified alone)) [nM] |
| --- | --- | --- |
| B1 | 2 | – |
| B2 | 2 | – |
| B3 | – | ~70 |
| B4 | – | ~40 |
